According to the Immune Epitope Database (IEDB):

biological target: HLA-A*33:03; assay: IEDB peptide-MHC binding, purified MHC/competitive/fluorescence; filed as Kd, often an IC50 or EC50 that approximates it; ≥ and ≤ were set here for values at or beyond the usual limits of such assays; conditions: source organism: Homo sapiens

Row | Kd [nM] | Sequence
1 | 1.37 | DAQRLHYYR
2 | 2.4 | DIYNHRFHR
3 | 2.19 | DTYLHRVAR
4 | 2.18 | DVFPGPSFR
5 | 1.47 | EFFIPRVGR
6 | 0.28 | EFFSINAQR
7 | 1.78 | EFQDFTVPR
8 | 3.14 | ETFPQRHMR
9 | 1.77 | ETVERIFRR
10 | 3.63 | EVKESPFFR
11 | 1.29 | EVYDIAFSR
12 | 3.22 | FTWNINHAR
13 | 3.4 | NTLQLHRYR
14 | 3.85 | QLYPRNFLR
15 | 1.99 | TTTEHRFFR
16 | 3.64 | VVAAVRWRR
17 | 1.43 | YVFPKPFNR
18 | 1.37 | YVQRFHYSR

More lines, now with the values behind:

Row | Sequence | Kd [nM]
19 | EFVDLYVPR | 5.11
20 | ELFDFLHAR | 1.68
21 | ETHFPFAIR | 2.11
22 | ETMPSPYGR | 3.1
23 | ETYKYLYGR | 1.79
24 | ETYLHRIGR | 1.69
25 | EVASVWVER | 11.5
26 | EVFEYIIFR | 4.69
27 | EVINDYHFR | 5.33
28 | FVFDRPVHR | 0.95
29 | MLYGLIHAR | 3.45
30 | MTILQTYFR | 3.19
31 | NTNDFVTLR | 4.87
32 | STARHLYLR | 0.92
33 | SYIDRLAPR | 1.43
